Test results from patent publication US20140274782A1, “AFFINITY REAGENTS AND METHODS FOR DETECTION, PURIFICATION, AND PROTEOMIC ANALYSIS OF METHYLATED PROTEINS” (The Board of Trustees of the Leland Stanford Junior …, priority 2013, published 2014).

T1: G9a and GLP (Homo sapiens, UniProt Q96KQ7+Q9H9B1)
T1 sequence (Q96KQ7 2-1210 limits assumed): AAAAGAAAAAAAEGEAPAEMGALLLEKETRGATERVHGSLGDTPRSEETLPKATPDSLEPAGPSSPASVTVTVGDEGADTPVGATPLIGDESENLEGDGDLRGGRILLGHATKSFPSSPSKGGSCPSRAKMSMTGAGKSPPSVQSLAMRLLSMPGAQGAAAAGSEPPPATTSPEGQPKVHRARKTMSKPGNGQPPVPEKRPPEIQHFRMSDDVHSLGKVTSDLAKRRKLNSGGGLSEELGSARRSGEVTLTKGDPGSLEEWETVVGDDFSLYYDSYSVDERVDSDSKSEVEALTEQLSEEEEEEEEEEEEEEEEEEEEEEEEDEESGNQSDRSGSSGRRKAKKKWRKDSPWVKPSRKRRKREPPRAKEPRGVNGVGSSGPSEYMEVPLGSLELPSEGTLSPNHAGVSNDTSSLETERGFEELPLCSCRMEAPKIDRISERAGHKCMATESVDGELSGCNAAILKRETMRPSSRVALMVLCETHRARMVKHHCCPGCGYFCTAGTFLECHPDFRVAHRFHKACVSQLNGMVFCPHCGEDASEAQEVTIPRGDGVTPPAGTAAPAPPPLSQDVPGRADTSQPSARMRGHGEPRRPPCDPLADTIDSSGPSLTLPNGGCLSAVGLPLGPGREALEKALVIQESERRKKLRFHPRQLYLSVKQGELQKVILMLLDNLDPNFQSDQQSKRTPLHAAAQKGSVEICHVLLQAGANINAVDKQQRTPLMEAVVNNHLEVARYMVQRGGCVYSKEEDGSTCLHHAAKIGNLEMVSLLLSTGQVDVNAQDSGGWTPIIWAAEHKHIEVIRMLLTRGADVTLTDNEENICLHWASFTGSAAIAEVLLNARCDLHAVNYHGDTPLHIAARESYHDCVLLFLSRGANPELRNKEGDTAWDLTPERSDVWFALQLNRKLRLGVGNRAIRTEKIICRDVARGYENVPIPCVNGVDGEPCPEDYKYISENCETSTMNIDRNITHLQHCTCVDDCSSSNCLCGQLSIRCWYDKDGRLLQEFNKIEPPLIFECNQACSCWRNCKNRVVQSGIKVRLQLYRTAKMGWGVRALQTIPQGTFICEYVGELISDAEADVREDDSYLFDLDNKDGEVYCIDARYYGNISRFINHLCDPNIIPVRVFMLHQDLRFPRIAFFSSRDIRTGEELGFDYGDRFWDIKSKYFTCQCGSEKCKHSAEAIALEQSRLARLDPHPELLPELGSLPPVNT
T1 sequence (Q9H9B1 2-1298 limits assumed): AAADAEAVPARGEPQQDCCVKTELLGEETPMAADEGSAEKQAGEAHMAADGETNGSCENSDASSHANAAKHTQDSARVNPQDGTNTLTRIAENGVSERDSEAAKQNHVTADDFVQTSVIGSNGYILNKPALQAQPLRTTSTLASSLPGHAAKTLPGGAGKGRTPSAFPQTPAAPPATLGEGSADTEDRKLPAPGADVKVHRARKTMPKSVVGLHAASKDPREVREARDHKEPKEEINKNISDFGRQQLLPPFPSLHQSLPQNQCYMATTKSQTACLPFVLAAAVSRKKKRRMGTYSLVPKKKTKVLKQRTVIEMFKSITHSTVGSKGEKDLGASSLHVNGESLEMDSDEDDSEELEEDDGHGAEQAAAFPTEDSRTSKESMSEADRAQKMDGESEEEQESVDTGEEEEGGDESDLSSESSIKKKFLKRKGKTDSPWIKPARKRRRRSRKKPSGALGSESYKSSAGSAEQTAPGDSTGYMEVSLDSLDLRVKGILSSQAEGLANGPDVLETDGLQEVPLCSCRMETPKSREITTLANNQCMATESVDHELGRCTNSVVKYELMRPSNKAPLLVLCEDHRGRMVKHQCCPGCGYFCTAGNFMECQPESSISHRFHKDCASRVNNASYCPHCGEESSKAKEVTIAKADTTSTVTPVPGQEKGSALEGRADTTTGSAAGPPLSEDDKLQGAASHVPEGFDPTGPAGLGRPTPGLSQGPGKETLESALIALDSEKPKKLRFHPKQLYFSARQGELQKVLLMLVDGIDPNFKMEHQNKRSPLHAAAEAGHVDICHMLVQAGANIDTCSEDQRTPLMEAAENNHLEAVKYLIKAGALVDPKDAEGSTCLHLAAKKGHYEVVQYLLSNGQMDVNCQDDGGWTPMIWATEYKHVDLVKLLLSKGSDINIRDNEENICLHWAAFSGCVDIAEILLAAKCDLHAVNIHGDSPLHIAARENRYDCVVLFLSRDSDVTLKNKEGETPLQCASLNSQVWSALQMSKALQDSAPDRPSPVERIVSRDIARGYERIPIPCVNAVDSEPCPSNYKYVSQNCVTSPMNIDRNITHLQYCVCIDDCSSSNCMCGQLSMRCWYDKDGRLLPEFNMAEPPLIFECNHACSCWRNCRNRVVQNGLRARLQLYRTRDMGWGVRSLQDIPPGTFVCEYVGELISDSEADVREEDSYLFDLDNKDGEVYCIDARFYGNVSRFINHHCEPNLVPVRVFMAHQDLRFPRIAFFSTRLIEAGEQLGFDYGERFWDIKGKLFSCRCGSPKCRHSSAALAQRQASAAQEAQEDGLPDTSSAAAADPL

B1: SH3PXD2B (protein, UniProt A1X283 1-911, looked up)
SH3 and PX domain-containing …: MPPRRSIVEVKVLDVQKRRVPNKHYVYIIRVTWSSGSTEAIYRRYSKFFDLQMQMLDKFPMEGGQKDPKQRIIPFLPGKILFRRSHIRDVAVKRLIPIDEYCKALIQLPPYISQCDEVLQFFETRPEDLNPPKEEHIGKKKSGGDQTSVDPMVLEQYVVVANYQKQESSEISLSVGQVVDIIEKNESGWWFVSTAEEQGWVPATCLEGQDGVQDEFSLQPEEEEKYTVIYPYTARDQDEMNLERGAVVEVIQKNLEGWWKIRYQGKEGWAPASYLKKNSGEPLPPKPGPGSPSHPGALDLDGVSRQQNAVGREKELLSSQRDGRFEGRPVPDGDAKQRSPKMRQRPPPRRDMTIPRGLNLPKPPIPPQVEEEYYTIAEFQTTIPDGISFQAGLKVEVIEKNLSGWWYIQIEDKEGWAPATFIDKYKKTSNASRPNFLAPLPHEVTQLRLGEAAALENNTGSEATGPSRPLPDAPHGVMDSGLPWSKDWKGSKDVLRKASSDMSASAGYEEISDPDMEEKPSLPPRKESIIKSEGELLERERERQRTEQLRGPTPKPPGVILPMMPAKHIPPARDSRRPEPKPDKSRLFQLKNDMGLECGHKVLAKEVKKPNLRPISKSKTDLPEEKPDATPQNPFLKSRPQVRPKPAPSPKTEPPQGEDQVDICNLRSKLRPAKSQDKSLLDGEGPQAVGGQDVAFSRSFLPGEGPGRAQDRTGKQDGLSPKEISCRAPPRPAKTTDPVSKSVPVPLQEAPQQRPVVPPRRPPPPKKTSSSSRPLPEVRGPQCEGHESRAAPTPGRALLVPPKAKPFLSNSLGGQDDTRGKGSLGPWGTGKIGENREKAAAASVPNADGLKDSLYVAVADFEGDKDTSSFQEGTVFEVREKNSSGWWFCQVLSGAPSWEGWIPSNYLRKKP
B2: DSTN (protein, UniProt P60981 2-165, looked up)
Destrin: ASGVQVADEVCRIFYDMKVRKCSTPEEIKKRKKAVIFCLSADKKCIIVEEGKEILVGDVGVTITDPFKHFVGMLPEKDCRYALYDASFETKESRKEELMFFLWAPELAPLKSKMIYASSKDAIKKKFQGIKHECQANGPEDLNRACIAEKLGGSLIVAFEGCPV
B3: EWSR1 (protein, UniProt Q01844 1-656, looked up)
RNA-binding protein EWS: MASTDYSTYSQAAAQQGYSAYTAQPTQGYAQTTQAYGQQSYGTYGQPTDVSYTQAQTTATYGQTAYATSYGQPPTGYTTPTAPQAYSQPVQGYGTGAYDTTTATVTTTQASYAAQSAYGTQPAYPAYGQQPAATAPTRPQDGNKPTETSQPQSSTGGYNQPSLGYGQSNYSYPQVPGSYPMQPVTAPPSYPPTSYSSTQPTSYDQSSYSQQNTYGQPSSYGQQSSYGQQSSYGQQPPTSYPPQTGSYSQAPSQYSQQSSSYGQQSSFRQDHPSSMGVYGQESGGFSGPGENRSMSGPDNRGRGRGGFDRGGMSRGGRGGGRGGMGSAGERGGFNKPGGPMDEGPDLDLGPPVDPDEDSDNSAIYVQGLNDSVTLDDLADFFKQCGVVKMNKRTGQPMIHIYLDKETGKPKGDATVSYEDPPTAKAAVEWFDGKDFQGSKLKVSLARKKPPMNSMRGGLPPREGRGMPPPLRGGPGGPGGPGGPMGRMGGRGGDRGGFPPRGPRGSRGNPSGGGNVQHRAGDWQCPNPGCGNQNFAWRTECNQCKAPKPEGFLPPPFPPPGGDRGRGGPGGMRGGRGGLMDRGGPGGMFRGGRGGDRGGFRGGRGMDRGGFGGGRRGGPGGPPGPLMEQMGGRRGGRGGPGKMDKGEHRQERRDRPY

What follows are molecules tested on 3×MBT domain of L3MBTL1 (assay: Triple SILAC pull-down, 3xMBT/3xMBTD355N ratio (cytoplasmic, nuclear and chromatin fractions of 293T cells)). Details: SILAC ratio, pull-down 3xMBT vs 3xMBTD355N; experiment with UNC0638 in heavy SILAC media.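 Also: proteins quantified with MaxQuant, requiring at least two unique peptides and quantification in both label directions, normalized to the mean of proteins from a digested loading control.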
Type: binding, human
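For Relative to UNC0638 Average in this document: mass spectrometry (Q-Exactive) SILAC quantitation, DMSO/UNC0638 ratio computed after subtracting 3×MBTD355N mutant pull-down background, only proteins with at least twofold 3×MBT over mutant signal considered.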
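For Relative to UNC0638 UNC Heavy in this document: mass spectrometry (Q-Exactive) SILAC quantitation, DMSO/UNC0638 ratio computed after subtracting 3×MBTD355N mutant pull-down background, only proteins with at least twofold 3×MBT over mutant signal considered.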
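For Relative to UNC0638 UNC Light in this document: mass spectrometry (Q-Exactive) SILAC quantitation, DMSO/UNC0638 ratio computed after subtracting 3×MBTD355N mutant pull-down background, only proteins with at least twofold 3×MBT over mutant signal considered.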

| Molecule | 3xMBT/D355N UNC Heavy |
| --- | --- |
| B1 | 3.07 log base 2 |
| B2 | 3.00 log base 2 |
| B3 | 2.09 log base 2 |

Same assay, conditions: SILAC ratio, pull-down 3xMBT vs 3xMBTD355N; experiment with UNC0638 in light SILAC media

| Molecule | 3xMBT/D355N UNC Light |
| --- | --- |
| B1 | 3.71 log base 2 |
| B2 | 2.54 log base 2 |
| B3 | 2.82 log base 2 |

What follows are molecules tested against T1, G9a and GLP (assay: Triple SILAC pull-down after UNC0638 treatment of 293T cells, DMSO/UNC0638 ratio of protein captured by 3×MBT). Details: SILAC ratio DMSO/UNC0638 of protein pulled down with 3xMBT; UNC0638 in heavy SILAC media.
Type: cell-based
Design: endogenous in cells; host or cells: HEK 293T

| Molecule | Relative to UNC0638 UNC Heavy |
| --- | --- |
| B1 | −0.09 log base 2 |
| B2 | 0.24 log base 2 |
| B3 | −0.11 log base 2 |

Same assay, conditions: SILAC ratio DMSO/UNC0638 of protein pulled down with 3xMBT; UNC0638 in light SILAC media

| Molecule | Relative to UNC0638 UNC Light |
| --- | --- |
| B1 | 0.37 log base 2 |
| B2 | 0.04 log base 2 |
| B3 | 0.38 log base 2 |

Same assay, conditions: average of UNC Light and UNC Heavy experiments

| Molecule | Relative to UNC0638 Average |
| --- | --- |
| B1 | 0.14 log base 2 |
| B2 | 0.14 log base 2 |
| B3 | 0.14 log base 2 |
